# Data taken from patent publication US20120251547A1 (Amgen, published 2012).
# Read-outs that look alike come from different tables or passages of the source.
# T1: chimera D
# T1 construct: human IL-17RA extracellular domain with mouse Domain D; column head 176-197; also called Construct D
# T1 IL-17RA extracellular domain with FLAG-polyHis tag: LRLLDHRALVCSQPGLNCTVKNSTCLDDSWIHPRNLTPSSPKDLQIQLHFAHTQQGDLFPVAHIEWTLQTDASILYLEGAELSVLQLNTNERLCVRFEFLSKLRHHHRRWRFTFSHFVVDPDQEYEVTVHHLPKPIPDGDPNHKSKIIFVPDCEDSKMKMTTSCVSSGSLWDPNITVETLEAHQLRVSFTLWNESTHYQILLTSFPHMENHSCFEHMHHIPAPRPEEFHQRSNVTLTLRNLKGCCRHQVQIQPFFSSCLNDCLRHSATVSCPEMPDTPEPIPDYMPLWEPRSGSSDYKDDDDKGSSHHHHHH
# Assays:
# huIL-17RA-FLAG-polyHis [1] = molecular target: T2, huIL-17RA-FLAG-polyHis (human, UniProt Q96F46 33-320); assay: binning; IL-17RA held by bead mAb O
# T2 construct: also called IL-17RA-FLAG-pHis; wild-type IL-17RA
# huIL-17RA-FLAG-polyHis [2] = molecular target: T2, huIL-17RA-FLAG-polyHis; assay: binning; IL-17RA held by bead mAb G
# huIL-17RA-FLAG-polyHis [3] = molecular target: T2, huIL-17RA-FLAG-polyHis; assay: binning; IL-17RA held by bead mAb F
# huIL-17RA-FLAG-polyHis [4] = molecular target: T2, huIL-17RA-FLAG-polyHis; assay: binning; IL-17RA held by bead mAb C
# [5] = molecular target: T3, human IL-17RA, full-length, on cells (human, UniProt Q96F46 33-866); assay: cell-based or functional assay
# huIL-17RA-FLAG-polyHis [6] = molecular target: T2, huIL-17RA-FLAG-polyHis; assay: binning; IL-17RA held by bead mAb R
# huIL-17RA-FLAG-polyHis [7] = molecular target: T2, huIL-17RA-FLAG-polyHis; assay: binning; IL-17RA held by bead mAb D
# [8] = molecular target: human IL-17RA (form used in the low resolution BIAcore not stated) (human, UniProt Q96F46 33-320, limits assumed); assay: low resolution BIAcore, subcloned hybridoma
# huIL-17RA-FLAG-polyHis [9] = molecular target: T2, huIL-17RA-FLAG-polyHis; assay: binning; IL-17RA held by bead mAb B
# huIL-17RA-FLAG-polyHis [10] = molecular target: T2, huIL-17RA-FLAG-polyHis; assay: binning; IL-17RA held by bead mAb A
# huIL-17RA-FLAG-polyHis [11] = molecular target: T2, huIL-17RA-FLAG-polyHis; assay: binning; IL-17RA held by bead mAb E
# huIL-17RA-FLAG-polyHis [12] = molecular target: T2, huIL-17RA-FLAG-polyHis; assay: binning; IL-17RA held by bead mAb M
# huIL-17RA-FLAG-polyHis [13] = molecular target: T2, huIL-17RA-FLAG-polyHis; assay: binning; IL-17RA held by bead mAb K
# huIL-17RA-FLAG-polyHis [14] = molecular target: T2, huIL-17RA-FLAG-polyHis; assay: binning; IL-17RA held by bead mAb Q
# [15] = molecular target: T3, human IL-17RA, full-length, on cells; assay: cell-based or functional assay; remark: listed apart in the source
# huIL-17RA-FLAG-polyHis [16] = molecular target: T2, huIL-17RA-FLAG-polyHis; assay: binning; IL-17RA held by bead mAb H
# [17] = molecular target: T4, cynomolgus IL-17RA, on cells (cynomolgus); assay: FACS competition: non-clonal supernatant inhibiting biotin-huIL-17A (competitor) binding to cyno IL-17RA+ CHO cells
# T4 construct: whole, on cells; also called CHO-cynoIL-17RA; cyno IL-17RA+ CHO cells
# huIL-17RA-FLAG-polyHis [18] = molecular target: T2, huIL-17RA-FLAG-polyHis; assay: binning; IL-17RA held by bead mAb P
# huIL-17RA-FLAG-polyHis [19] = molecular target: T2, huIL-17RA-FLAG-polyHis; assay: binning; IL-17RA held by bead mAb L
# huIL-17RA-FLAG-polyHis [20] = molecular target: T2, huIL-17RA-FLAG-polyHis; assay: binning; IL-17RA held by bead mAb J
# huIL-17RA-FLAG-polyHis [21] = molecular target: T2, huIL-17RA-FLAG-polyHis; assay: binning; IL-17RA held by bead mAb I
# huIL-17RA-FLAG-polyHis [22] = molecular target: T2, huIL-17RA-FLAG-polyHis; assay: binning; IL-17RA held by bead mAb N
# [23] = molecular target: T4, cynomolgus IL-17RA, on cells; assay: cell-based or functional assay
# [24] = molecular target: T4, cynomolgus IL-17RA, on cells; assay: FACS competition: non-clonal supernatant inhibiting biotin-huIL-17A (competitor) binding to cyno IL-17RA+ CHO cells; remark: listed apart in the source
# chimera J = molecular target: T5, chimera J; assay: Bio-Plex titration on His-captured chimera;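 further: binding of anti-IL-17RA antibodies (4-fold titration across about 5 logs, 1 h) to His-captured IL-17RA chimeras on multiplexed beads, MFI read as percent of maximal wild-type human IL-17RA signal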
# T5 construct: human IL-17RA extracellular domain with mouse Domains D and E; column head D+E; also called Construct J
# chimera D = molecular target: T1, chimera D; assay: Bio-Plex titration on His-captured chimera;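 further: binding of anti-IL-17RA antibodies (4-fold titration across about 5 logs, 1 h) to His-captured IL-17RA chimeras on multiplexed beads, MFI read as percent of maximal wild-type human IL-17RA signal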
binder,measurement,setting,value
"AMH16/AML16 (antibody, IgG2, V domains shown, human mAb from IgG2 XenoMouse mice; also called AM-16; antibody O) VH: QVQLVQSGAEVKKPGASVKVSCKASGYTFTSYGISWVRQAPGQGLEWMGWISAYNGNTKYAQKLQGRVTMTTDTSTSTVYMELRSLRSDDTAVYYCARKQLVFDYWGQGTLVTVSS VL: EIVMTQSPATLSVSPGERATLSCRASQSISTSLAWYQQKPGQAPRLLIYGTSTRATGIPARFSGSGSGTEFTLTISSLQSEDFAVYFCQQYDIWPLTFGGGTKVEIK",normalized MFI,huIL-17RA-FLAG-polyHis [1],139
same,normalized MFI,huIL-17RA-FLAG-polyHis [2],4490
same,normalized MFI,huIL-17RA-FLAG-polyHis [3],2220
same,normalized MFI,huIL-17RA-FLAG-polyHis [4],4510
same,"IL-17A/HFF bioassay IC50, subclone 24",[5],1.6 nM
same,"IL-17A/HFF bioassay IC50, subclone 25",[5],2.3 nM
same,"IL-17A/HFF bioassay IC50, subclone 26",[5],1.4 nM
same,normalized MFI,huIL-17RA-FLAG-polyHis [6],76
same,normalized MFI,huIL-17RA-FLAG-polyHis [7],1370
same,Kd,[8],6.2 nM
same,normalized MFI,huIL-17RA-FLAG-polyHis [9],630
same,normalized MFI,huIL-17RA-FLAG-polyHis [10],3000
same,normalized MFI,huIL-17RA-FLAG-polyHis [11],1260
same,normalized MFI,huIL-17RA-FLAG-polyHis [12],73
same,normalized MFI,huIL-17RA-FLAG-polyHis [13],-111
same,normalized MFI,huIL-17RA-FLAG-polyHis [14],135
same,"% inhibition of IL-6 Production, IL-17A/HFF bioassay, non-clonal supernatant 1:4",[15],86%
same,"% inhibition of IL-6 Production, IL-17A/HFF bioassay, non-clonal supernatant 1:32",[15],90%
same,"% inhibition of IL-6 Production, IL-17A/HFF bioassay, non-clonal supernatant 1:128",[15],71%
same,normalized MFI,huIL-17RA-FLAG-polyHis [16],120
same,MFI,[17],6
same,normalized MFI,huIL-17RA-FLAG-polyHis [18],2540
same,normalized MFI,huIL-17RA-FLAG-polyHis [19],18
same,normalized MFI,huIL-17RA-FLAG-polyHis [20],59
same,normalized MFI,huIL-17RA-FLAG-polyHis [21],10
same,normalized MFI,huIL-17RA-FLAG-polyHis [22],83
"AMH14/AML14 (antibody, V domains shown, human mAb from IgG2 XenoMouse mice; also called AM-14; antibody K) VH: QVQLVQSGAEVKKPGASVKVSCKASGYTFTRYGISWVRQAPGQGLEWMGWISTYSGNTNYAQKLQGRVTMTTDTSTSTAYMELRSLRSDDTAVYYCARRQLYFDYWGQGTLVTVSS VL: EIVMTQSPATLSVSPGERATLSCRASQSVSSNLAWFQQKPGQAPRPLIYDASTRATGVPARFSGSGSGTDFTLTISSLQSEDFAVYYCQQYDNWPLTFGGGTKVEIK","cynomolgous IL-17A-induced IL-6 production from JTC-12 cells, IC50",[23],~1.2 nM
same,MFI,[24],10
"AMH26/AML26 (antibody, IgG2, V domains shown, human mAb from IgG2 XenoMouse mice; also called AM-26; antibody P) VH: QVQLVESGGGLVKPGGSLRLSCAASGFTFSDYYMSWIRQAPGKGLEWVSYISSSGSTIYYADSVKGRFTISRDNAKNSLYLQMNSLRAEDTAVYYCARDRTYYFGSGSYEGMDVWGQGTTVTVSS VL: EILMTQSPATLSVSPGERATLSCRASQSVYSNLAWYQQKPGQAPRLLISGASTRATGIPARFSGSGSGTEFTLTISSLQSEDFAVYYCQQYYNWPWTFGQGTKVEIK",EC50,chimera J,0.234 nM
same,EC50,chimera D,0.145 nM
"AMH15/AML15 (antibody, IgG2, V domains shown, human mAb from IgG2 XenoMouse mice; tested only as part of a non-clonal hybridoma supernatant; also called AM-15) VH: QVQLVESGGGVVQPGRSLRLSCAASGFTFSSYGMQWVRQAPGKGLEWVAVIWYDGNKKYYADSVKGRFTISRDNSKNTLYLQMNSLRAEDTAVYYCARGRVRDYYYGMDVWGQGTTVTVSS VL: EIVMTQSPATLSVSPGERVTLSCRASQSVSSNLAWFQQKPGQAPRPLIYDASTRAAGIPARFSGSGSGTDFTLTISSLQSEDFAVYYCQQYDNWPLTFGGGTKVEIK",MFI,[24],6
